Source: patent publication US20230390418A1, “[…] XII ANTIBODIES AND ADMINISTRATION THEREOF” (REGENXBIO INC., priority 2020, published 2023)

How the values were obtained:
[1] = test system: carrageenan-induced paw edema; assay: Carrageenan paw edema model in mice (paw volume, plethysmometer); type: in vivo; details: C57BL/6 mice, vectors 21 days, Diclofenac 30 minutes prior to carrageenan
Source text: Inflammation models induced by carrageenan are frequently used acute inflammation models. Carrageenan (Cg) is a strong chemical agent that functions in stimulating the release of inflammatory and proinflammatory mediators, including bradykinin, histamine, tachykinins, reactive oxygen, and nitrogen species. Typical signs of inflammation include edema, hyperalgesia, and erythema, which develop immediately following the treatment of carrageenan. This example evaluated the effect of AAV-mediated gene delivery of Lanadelumab on carrageenan-induced paw edema in mice.
In total eighty young adult (8-9 weeks old) male C57BL/6 mice were used for this study. Paw edema was induced by a single subcutaneous (s.c.) injection of 30 μL of 0.7% or 1% carrageenan solution. Test vectors and positive control Diclofenac were administered at 21 days and 30 minutes prior to carrageenan treatment. Blood was collected before vectors injection and at 7 and 21 days post injection from mice in groups 1, 3, 4, 5, 7 and 8. Paw volume was measured using a digital Plethysmometer prior to carrageenan injection, and at 2, 4, 6, 8, 24 and 48 hours after injection. All animals were sacrificed 48 hours after carrageenan injection. Liver and paw specimens were also collected at the necropsy.

[2] = biological target: activated human plasma kallikrein (Enzyme Research Laboratories) (human) (UniProt P03952); assay: cell-based or functional assay
[3] = biological target: T1, activated human plasma kallikrein (Homo sapiens, UniProt P03952); assay: In vitro pKal functional assay (fluorogenic PFR-AMC substrate); type: biochemical
T1 construct: purchased Enzyme Research Laboratories
T1 sequence (P03952 391-638 limits assumed): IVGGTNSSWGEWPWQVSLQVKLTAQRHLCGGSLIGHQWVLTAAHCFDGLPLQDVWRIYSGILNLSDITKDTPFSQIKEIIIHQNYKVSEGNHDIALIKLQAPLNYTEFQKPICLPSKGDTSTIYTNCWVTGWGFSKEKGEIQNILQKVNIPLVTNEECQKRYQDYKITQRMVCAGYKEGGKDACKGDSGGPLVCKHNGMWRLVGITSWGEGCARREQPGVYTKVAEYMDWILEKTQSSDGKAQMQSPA
T1 sequence (P03952 20-390 limits assumed): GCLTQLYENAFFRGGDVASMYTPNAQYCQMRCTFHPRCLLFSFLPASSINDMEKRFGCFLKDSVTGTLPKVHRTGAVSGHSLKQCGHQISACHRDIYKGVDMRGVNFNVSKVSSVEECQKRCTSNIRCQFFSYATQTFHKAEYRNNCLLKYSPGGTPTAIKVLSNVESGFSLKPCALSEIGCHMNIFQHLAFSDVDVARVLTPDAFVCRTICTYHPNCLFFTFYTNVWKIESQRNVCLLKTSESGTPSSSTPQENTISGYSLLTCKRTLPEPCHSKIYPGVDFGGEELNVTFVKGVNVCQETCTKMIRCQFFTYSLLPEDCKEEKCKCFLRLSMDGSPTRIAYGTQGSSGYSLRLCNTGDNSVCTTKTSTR
Experimental: In order to measure pKal function of lanadelumab derived from mouse serum following AAV-lanadelumab administration, a fluorescence-based kinetic enzymatic functional assay was performed. First, activated human plasma kallikrein (Enzyme Research Laboratories) was diluted in sample dilution buffer (SDB; 1×PBS, 3% BSA, 0.1% Tween-20) to top concentration of 100 nM. This pKal was two-fold serially diluted for a total of 12 concentrations in the dilution series (100 nM-0.05 nM). From each dilution, and in duplicate, […], was placed in one well of a 96-well, opaque flat-bottomed plate along with […], of SDB. […] The samples were immediately run in kinetic mode for AMC fluorescence at excitation/emission wavelengths of 380/460 nm, respectively, for 3 hours using a SpectraMax 3 fluorescent plate reader.
The signal-to-noise ratio for each pKal concentration RFU (last RFU fluorescent value chosen) was calculated by dividing its RFU by background PFR-AMC substrate fluorescence. […] Antibody-pKal mixture was then given PFR-AMC and immediately run in kinetic mode for AMC fluorescence at excitation/emission wavelengths of 380/460 nm, respectively, for 3 hours using a SpectraMax fluorescent plate reader.
In vitro pKal functional assay. […] Total antibody concentration was measured using a Nanodrop spectrophotometer, with OD absorbance=280 nm. […]

O=C(O)Cc1ccccc1Nc1c(Cl)cccc1Cl [diclofenac, Diclofenac]
Paw volume versus vehicle control ([1]; 0.7% carrageenan model): a significant decrease on paw volume was observed only at 4 and 24 hours post injection
Paw volume versus vehicle control ([1]; 1.0% carrageenan model): significantly decreased the paw volume at 2, 4, 6, 8 and 24 hours post carrageenan injection

Vectorized lanadelumab derived from mouse serum following AAV-lanadelumab administration (antibody)
percent reduction in pKal activity (serum diluted 1:25, day 49 post-administration against day -7; PFR-AMC assay) [2]: 50%

Lanadelumab (GenScript) (antibody)
suppression of pKal activity (PFR-AMC fluorogenic substrate, kinetic AMC fluorescence) [2]: 0.1 nM

B1: lanadelumab: human anti-pKal (anti-kallikrein) IgG antibody; purified (GenScript) or produced in serum via AAV-mediated gene delivery (antibody)
heavy: EVQLLESGGGLVQPGGSLRLSCAASGFTFSHYIMMWVRQAPGKGLEWVSGIYSSGGITVYADSVKGRFTISRDNSKNTLYLQMNSLRAEDTAVYYCAYRRIGVPRRDEFDIWGQGTMVTVSSASTKGPSVFPLAPSSKSTSGGTAALGCLVKDYFPEPVTVSWNSGALTSGVHTFPAVLQSSGLYSLSSVVTVPSSSLGTQTYICNVNHKPSNTKVDKRVEPKSCDKTHTCPPCPAPELLGGPSVFL
light: DIQMTQSPSTLSASVGDRVTITCRASQSISSWLAWYQQKPGKAPKLLIYKASTLESGVPSRFSGSGSGTEFTLTISSLQPDDFATYYCQQYNTYWTFGQGTKVEIKRTVAAPSVFIFPPSDEQLKSGTASVVCLLNNFYPREAKVQWKVDNALQSGNSQESVTEQDSKDSTYSLSSTLTLSKADYEKHKVYACEVTHQGLSSPVTKSFNRGEC
modifications: Lanadelumab Heavy; misc (227)..(230) amino acids 227 to 230 are present or absent; misc (231)..(236) amino acids 231 to 236 are present or absent; misc (237)..(247) amino acids 237 to 247 are present or absent; Lanadelumab Light
notes: human anti-pKal (anti-kallikrein) IgG antibody; purified (GenScript) or produced in serum via AAV-mediated gene delivery
Paw volume versus vehicle control ([1]; 1.0% carrageenan model): significantly reduces the severity of inflammation
Suppression of human pKal function by purified total IgG from mouse serum ([3]; IgG purified from day 49 post-administration serum versus day −7): suppressed human pKal function
Lowest in-well concentration with noticeable suppression of pKal activity ([3]; purified antibody, defined enzyme concentration): 0.1 nM
